According to patent US5646120, “Peptide-based inhibitors of HIV replication” (Allelix Biopharmaceuticals, Inc.):

T1: Tat basic domain wild-type oligopeptide ([…]) (HIV-1, UniProt P04608 P04608:49-57)
T1 chain: RKKRRQRRR


Tests used:
[1] = biological target: HIV-1 Tat(1-86) (HIV-1, UniProt P04608 P04608:1-86); test: EMSA; TAR variant stated not to bind tat; conditions: hairpin
[2] = biological target: T1, Tat basic domain wild-type oligopeptide …; test: EMSA; affinity similar to tat(1-86); conditions: protein: synthetic; tags: synthetic L-peptide, American Peptide Company; hairpin

Binder | binding result [1] | binding result [2]
GGAGAACUGAGCCUGGGAGCUCUCUCC (ssRNA) [TAR variant not binding tat] | no binding | 
GGAGAUCUGAGCCUGGGAGCUCUCUCC (ssRNA) [truncated functional TAR RNA] |  | binds
